For assay [1], the target named is T1, HER2 extracellular domain (human, UniProt P04626 23-652).
T1 construct: extracellular domain; also called HER2-ECD; Her2-ECD
The assay is described as follows: competition ELISA of phage-displayed Fab. (An ELISA detects its analyte on a solid surface through an enzyme-linked reagent.)

Another assay deals with T2, human death receptor 5 (human, UniProt O14763 56-210).
T2 construct: also called hDR5; DR5
The assay is described as follows: ELISA: antigen immobilized, hIgG 15 µg/mL, OD450; bars assigned by their left-to-right order.

The target in another assay is T3, bovine serum albumin (bovine, UniProt P02769 25-607).
T3 construct: also called BSA
The description is as above.

Assay [2] has as its target T4, hVEGF-C (human, UniProt P49767 103-227).
T4 construct: also called vascular endothelial growth factor C
T4 sequence (looked up): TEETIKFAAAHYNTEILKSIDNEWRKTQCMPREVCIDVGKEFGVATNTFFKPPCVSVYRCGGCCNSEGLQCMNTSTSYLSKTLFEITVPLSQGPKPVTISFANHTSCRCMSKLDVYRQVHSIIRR
Described as above.

For another assay, the target named is T5, HER3 ECD.
T5 construct: also called ErbB3/HER3 extracellular domain
The assay is described as above.

Assay [3] deals with T6, epidermal growth factor receptor extracellular domain (human, UniProt P00533 25-645).
T6 construct: extracellular domain; also called hEGFR
The assay is described as above.

Assay [4] concerns the target T7, hVEGF-D (human, UniProt O43915 93-201).
T7 construct: also called vascular endothelial growth factor D
T7 sequence (looked up): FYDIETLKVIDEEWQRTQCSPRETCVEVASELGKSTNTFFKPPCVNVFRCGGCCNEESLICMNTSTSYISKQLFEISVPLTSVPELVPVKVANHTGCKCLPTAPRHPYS
The description is as above.

Assay [5] concerns the target T8, human VEGF109 (human, UniProt P15692 214-315, limits assumed).
T8 construct: also called hVEGF109
T8 sequence (looked up): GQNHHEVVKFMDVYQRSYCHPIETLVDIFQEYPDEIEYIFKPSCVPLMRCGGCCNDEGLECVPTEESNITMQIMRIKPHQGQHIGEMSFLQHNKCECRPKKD
Put plainly: SPR, captured IgG, antigen in solution, 30°C. A general note: SPR reads the build-up and loss of mass on a sensor chip optically.

The target in assay [6] is T1, HER2 extracellular domain. Put plainly: BIAcore SPR.
For assay [7], the target named is T8, human VEGF109. Put plainly: BIAcore SPR, steady state analysis.
Assay [8] has as its target T9, human VEGF (form not stated) (human, UniProt P15692-4 27-191).
T9 construct: also called hVEGF; hVEGF-A
The assay is described as follows: competitive phage ELISA.

Assay [9] addresses T1, HER2 extracellular domain. Put plainly: competitive phage ELISA.
In assay [10] the target is T1, HER2 extracellular domain. Put plainly: Her2 in solution (varied) against DR5 coat.
For assay [11], the target named is T8, human VEGF109. The assay is described as follows: BIAcore SPR.
In assay [12] the target is T10, murine VEGF (form not stated) (mouse, UniProt Q00731-2 27-190).
T10 construct: also called mVEGF
T10 sequence (looked up): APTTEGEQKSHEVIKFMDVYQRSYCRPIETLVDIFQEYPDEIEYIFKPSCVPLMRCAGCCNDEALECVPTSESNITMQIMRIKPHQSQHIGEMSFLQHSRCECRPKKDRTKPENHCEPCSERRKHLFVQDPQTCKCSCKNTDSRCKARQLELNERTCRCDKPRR
The assay is described as follows: BIAcore SPR, mVEGF108.

In assay [13] the target is T9, human VEGF (form not stated). The assay is described as follows: competitive phage ELISA. The source holds these as a separate data set.
Assay [14] has the same target. Put plainly: competitive phage ELISA. The source holds these as a separate data set.
In assay [15] the target is T4, hVEGF-C. Put plainly: ELISA.
The target in assay [16] is T7, hVEGF-D. Put plainly: ELISA.

Values joined by “and” are separate entries in the source; they are usually repeats but may differ in a detail not shown here. Identical values can stand only once. Like-named read-outs stand apart in the source and are kept apart here.

B1: 20.49 (Fab, V domains shown)
VH: not shown
VL: DIQMTQSPSSLSASVGDRVTITCRASVDLPKSVSGYVAWYQQKPGKAPKLLIYWGSFLYSGVPSRFSGSGSGTDFTLTISSLQPEDFATYYCQQHFTSPPTFGQGTKVEIKR
One may read the IC50 as the concentration that gives 50% inhibition. Read a low IC50 as greater potency. In the case of B1, in assay [1], the IC50 came out at 2.6 nM.

B2: 35.95 (Fab, V domains shown)
VH: not shown
VL: DIQMTQSPSSLSASVGDRVTITCRAIENLPKSVSGYVAWYQQKPGKAPKLLIYWGSFLYSGVPSRFSGSGSGTDFTLTISSLQPEDFATYYCQQHYTSPPTFGQGTKVEIKR
For B2, the IC50 in [1] was found to be 4.3 nM.

B3: 35.45 (Fab, V domains shown)
VH: not shown
VL: DIQMTQSPSSLSASVGDRVTITCRASEDIPKTVSGYVAWYQQKPGKAPKLLIYWGSFLYSGVPSRFSGSGSGTDFTLTISSLQPEDFATYYCQQHFSSPPTFGQGTKVEIKR
In [1], B3 had a half-inhibitory concentration (IC50) of 1.1 nM.

B4: bH1-81 IgG (bispecific antibody, V domains shown)
VH: not shown
VL: DIQMTQSPSSLSASVGDRVTITCRASQNIAKTISGYVAWYQQKPGKAPKLLIYWGSFLYSGVPSRFSGSGSGTDFTLTISSLQPEDFATYYCQQHYSSPPTFGQGTKVEIKR
notes: also called bH1-81 antibody; not shown: rest of the human IgG heavy-chain constant region
What is called Kd is the equilibrium constant for the complex coming apart. Low values mean higher affinity, high ones lower affinity. As for B4, the binding result (with human death receptor 5; with bovine serum albumin; in the assay with hVEGF-C [2]; with HER3 ECD; in assay [3]; with hVEGF-D [4]) was “no binding (tested: 15 µg/mL)” each time. Besides, binding with human VEGF109 [5] was characterised by a dissociation constant (Kd) of 41 nM.

B5: 20.80 (Fab, V domains shown)
VH: not shown
VL: DIQMTQSPSSLSASVGDRVTITCRASEDIPKSISGYVAWYQQKPGKAPKLLIYWGSFLYSGVPSRFSGSGSGTDFTLTISSLQPEDFATYYCQQHFSSPPTFGQGTKVEIKR
As to B5, the concentration for half-maximal inhibition (IC50) in [1] is 2.2 nM.

B6: H4_N (bispecific antibody, V domains shown)
VH: not shown
VL: DIQMTQSPSSLSASVGDRVTITCRASQNIRSGSVAWYQQKPGKAPKLLIYWASYLYSGVPSRFSGSGSGTDFTLTISSLQPEDFATYYCQQHYTTPPTFGQGTKVEIK
notes: also called H4_N hIgG; H4_N Fab
The koff is a measure of how fast the partners let go of each other. The kon is a measure of how fast the partners come together. In the case of B6, in assay [6], the Kd is 9.87 nM and 6 nM; the koff turned out to be 0.0013 s⁻¹; the on-rate constant (kon) is 140000 M⁻¹ s⁻¹ and 230000 M⁻¹ s⁻¹. The same molecule displayed a Kd with human VEGF109 [7] of 550 nM.

B7: H4 (phage) (scFv, V domains shown)
VH: not shown
VL: DIQMTQSPSSLSASVGDRVTITCRASQNIRTGSVAWYQQKPGKAPKLLIYWGSYLYSGVPSRFSGSGSGTDFTLTISSLQPEDFATYYCQQHYTTPPTFGQGTKVEIK
With B7, the figures for the concentration for half-maximal inhibition (IC50) in assay [8] and in assay [9] were 115 nM and 0.54 nM, respectively.

B8: D1 hIgG (bispecific antibody, V domains shown)
VH: not shown
VL: DIQMTQSPSSLSASVGDRVTITCRASQNVSKHVAWYQQKPGKAPKLLIYWGSYLYSGVPSRFSGSGSGTDFTLTISSLQPEDFATYYCQQSYSGPPTFGQGTKVEIK
notes: also called D1 (anti-hDR5/Her2)
As for B8, the “IC50 (read off the curve)” value in [10] is around 50 nM.

B9: 35.74 (Fab, V domains shown)
VH: not shown
VL: DIQMTQSPSSLSASVGDRVTITCRAIQDIPKTITGYVAWYQQKPGKAPKLLIYWGSFLYSGVPSRFSGSGSGTDFTLTISSLQPEDFATYYCQQHFNSPPKFGQGTKVEIK
Regarding B9, in [1], the IC50 came to 0.7 nM.

B10: 3_7 Fab (Fab, V domains shown)
VH: not shown
VL: DIQMTQSPSSLSASVGDRVTITCRASQYIWRYVAWYQQKPGKAPKLLIYWGSSLYSGVPSRFSGSGSGTDFTLTISSLQPEDFATYYCQQGLWYSPPTFGQGTKVEIK
On to B10, for which, in the assay with human VEGF109 [11], the equilibrium dissociation constant (Kd) was 3 nM, the dissociation rate constant (koff) was determined as 0.0025 s⁻¹ and the association rate constant (kon) was 800000 M⁻¹ s⁻¹. In assay [12], this molecule showed a Kd of 78 nM, a koff of 0.0056 s⁻¹ and a kon of 72000 M⁻¹ s⁻¹.

B11: 3-4 (phage) (scFv, V domains shown, not shown: large carriers; small tags and cut ends)
VH: not shown
VL: DIQMTQSPSSLSASVGDRVTITCRASQEVYSYVAWYQQKPGKAPKLLIYPASSLYSGVPSRFSGSGSGTDFTLTISSLQPEDFATYYCQQGFWIGPPTFGQGTKVEIK
notes: also called c3-4
Consider B11, for which the half-inhibitory concentration (IC50) in assay [13] came to 32 nM.

B12: 3-7 (phage) (scFv, V domains shown, not shown: large carriers; small tags and cut ends)
VH: not shown
VL: DIQMTQSPSSLSASVGDRVTITCRASQYIWRYVAWYQQKPGKAPKLLIYWGSSLYSGVPSRFSGSGSGTDFTLTISSLQPEDFATYYCQQGLWYSPPTFGQGTKVEIK
In the case of B12, the IC50 in [13] is 16 nM.

B13: 3-7 hIgG (antibody, V domains shown)
VH: not shown
VL: DIQMTQSPSSLSASVGDRVTITCRASQYIWRYVAWYQQKPGKAPKLLIYWGSSLYSGVPSRFSGSGSGTDFTLTISSLQPEDFATYYCQQGLWYSPPTFGQGTKVEIK
notes: also called 3-7 anti-hVEGF
In the assay with human VEGF109 [11], B13 showed a Kd of 7 nM, an off-rate (koff) of 0.0042 s⁻¹ and an on-rate constant (kon) of 580000 M⁻¹ s⁻¹. In [12], this molecule yielded a Kd of 30 nM, a koff of 0.015 s⁻¹ and a kon of 500000 M⁻¹ s⁻¹.

B14: H7 (scFv, V domains shown)
VH: not shown
VL: DIQMTQSPSSLSASVGDRVTITCRASQNVWDWVAWYQQKPGKAPKLLIYPASSLYSGVPSRFSGSGSGTDFTLTISSLQPEDFATYYCQQGWYIAPPTFGQGTKVEIK
notes: not shown: scFv linker carrying the gD tag and the phage coat fusion
In the case of B14, the 50% inhibitory concentration (IC50) in [14] stood at 60 nM.

B15: 3-1 (Table 2) (Fab, V domains shown)
VH: not shown
VL: DIQMTQSPSSLSASVGDRVTITCRASQNVWDWVAWYQQKPGKAPKLLIYPASSLYSGVPSRFSGSGSGTDFTLTISSLQPEDFATYYCQQGWYIAPPTFGQGTKVEIKR
notes: also called 3-1 Fab
Take B15: the binding result in assay [6] was “no binding”. In assay [12], this molecule came in with a Kd of 105 nM and a dissociation rate constant (koff) of 0.0036 s⁻¹.

B16: 3-1 hIgG (antibody, V domains shown)
VH: not shown
VL: DIQMTQSPSSLSASVGDRVTITCRASQNVWDWVAWYQQKPGKAPKLLIYPASSLYSGVPSRFSGSGSGTDFTLTISSLQPEDFATYYCQQGWYIAPPTFGQGTKVEIKR
notes: also called 3-1 IgG; not shown: rest of the human IgG heavy-chain constant region
For B16, the binding result in [6] is listed as “no binding”; in the assay with hVEGF-C [15], “no binding”; in the assay with hVEGF-D [16], “no binding”; with human death receptor 5, “no binding (tested: 15 µg/mL)”; with bovine serum albumin it was “no binding (tested: 15 µg/mL)”; in assay [3], “no binding (tested: 15 µg/mL)”. The affinity in assay [12], expressed as Kd, was 44 nM. In assay [12], this molecule returned a koff of 0.016 s⁻¹.

For the origin of these results see patent US20100322946A1 (Genentech, published 2010).
